We go through two molecules from paper PMC12098869, “An mRNA-display derived cyclic peptide scaffold reveals the substrate binding interactions of an N-terminal cysteine oxidase” (Nature Communications, 2025).

Experiment in all cases: SPR; multi-cycle, equilibrium steady state affinity 1:1 binding model; biotinylated ADO or variant immobilised on a Biotin CAP chip (~2500-3000 RU), peptide injected; 4 °C; 20 mM HEPES pH 7.5, 500 mM NaCl, 10 mM DTT, 0.1% (v/v) tween-20; 50 μL/minute
Common to all, as to details: both partners purified

Experiment [1] has as its target T1, ADO-Y222A, biotinylated (pQE80L-Navi-ADO) (human, UniProt Q96SZ5 1-270, Y222A, biotin on the Avi tag).
T1 construct: Tag as in Dm1; source: E. coli Rosetta2(DE3), purified (Ni-NTA, SEC); not shown: Avi tag, N-terminal, kept; His6, N-terminal, kept
T1 sequence (looked up): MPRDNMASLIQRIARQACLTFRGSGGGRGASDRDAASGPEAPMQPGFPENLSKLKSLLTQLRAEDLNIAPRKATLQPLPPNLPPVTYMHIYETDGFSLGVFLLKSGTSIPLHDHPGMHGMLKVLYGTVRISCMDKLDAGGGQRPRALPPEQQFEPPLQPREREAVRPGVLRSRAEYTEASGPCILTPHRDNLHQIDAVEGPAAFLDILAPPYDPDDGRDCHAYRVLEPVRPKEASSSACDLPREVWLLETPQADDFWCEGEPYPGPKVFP
In outline:
(§1)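 Biotinylated full-length human ADO (wild type or engineered forms) was made in E. coli with a His tag, then purified by nickel affinity and gel filtration. It was captured on a Biotin CAP chip at about 2500–3000 RU in a Biacore T200, and peptides were flowed over it. The run was at 4 °C in HEPES pH 7.5 buffer with 500 mM NaCl, DTT and tween-20, at 50 μL/minute. Kd came from a 1:1 steady-state fit of multi-cycle equilibrium responses.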

The target in experiment [2] is T2, ADO-Y87A, biotinylated (pQE80L-Navi-ADO) (human, UniProt Q96SZ5 1-270, Y87A, biotin on the Avi tag).
T2 construct: Tag as in Dm1; source: E. coli Rosetta2(DE3), purified (Ni-NTA, SEC); not shown: Avi tag, N-terminal, kept; His6, N-terminal, kept
T2 sequence (looked up): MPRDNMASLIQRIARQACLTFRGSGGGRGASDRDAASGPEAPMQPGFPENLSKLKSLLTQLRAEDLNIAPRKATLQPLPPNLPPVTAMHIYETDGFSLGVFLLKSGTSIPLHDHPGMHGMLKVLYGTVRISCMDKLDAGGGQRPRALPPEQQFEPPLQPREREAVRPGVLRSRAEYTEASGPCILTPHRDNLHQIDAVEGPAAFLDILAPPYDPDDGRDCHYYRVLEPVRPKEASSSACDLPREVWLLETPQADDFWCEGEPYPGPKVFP
In outline: as §1

The target in experiment [3] is T3, ADO-F101A, biotinylated (pQE80L-Navi-ADO) (human, UniProt Q96SZ5 1-270, F101A, biotin on the Avi tag).
T3 construct: Tag as in Dm1; source: E. coli Rosetta2(DE3), purified (Ni-NTA, SEC); not shown: Avi tag, N-terminal, kept; His6, N-terminal, kept
T3 sequence (looked up): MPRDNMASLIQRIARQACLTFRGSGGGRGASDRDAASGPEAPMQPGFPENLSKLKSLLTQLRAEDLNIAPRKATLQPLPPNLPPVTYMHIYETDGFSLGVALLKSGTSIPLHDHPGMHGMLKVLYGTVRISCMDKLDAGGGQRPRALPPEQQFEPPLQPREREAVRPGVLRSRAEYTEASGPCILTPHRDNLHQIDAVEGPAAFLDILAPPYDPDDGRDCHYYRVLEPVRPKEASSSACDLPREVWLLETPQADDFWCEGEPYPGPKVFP
In outline:
as §1

Experiment [4] has as its target T4, ADO-C220A, biotinylated (pQE80L-Navi-ADO) (human, UniProt Q96SZ5 1-270, C220A, biotin on the Avi tag).
T4 construct: Tag as in Dm1; source: E. coli Rosetta2(DE3), purified (Ni-NTA, SEC); not shown: Avi tag, N-terminal, kept; His6, N-terminal, kept
T4 sequence (looked up): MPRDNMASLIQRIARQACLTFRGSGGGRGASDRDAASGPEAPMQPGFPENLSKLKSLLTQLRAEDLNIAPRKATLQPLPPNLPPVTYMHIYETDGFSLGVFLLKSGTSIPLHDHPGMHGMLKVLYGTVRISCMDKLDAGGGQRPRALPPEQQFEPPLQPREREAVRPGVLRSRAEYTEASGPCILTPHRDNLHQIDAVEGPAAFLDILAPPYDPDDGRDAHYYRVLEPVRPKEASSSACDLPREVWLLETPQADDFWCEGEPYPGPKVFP
In outline:
as §1

Experiment [5] deals with T5, ADO-Y212A, biotinylated (pQE80L-Navi-ADO) (human, UniProt Q96SZ5 1-270, Y212A, biotin on the Avi tag).
T5 construct: Tag as in Dm1; source: E. coli Rosetta2(DE3), purified (Ni-NTA, SEC); not shown: Avi tag, N-terminal, kept; His6, N-terminal, kept
T5 sequence (looked up): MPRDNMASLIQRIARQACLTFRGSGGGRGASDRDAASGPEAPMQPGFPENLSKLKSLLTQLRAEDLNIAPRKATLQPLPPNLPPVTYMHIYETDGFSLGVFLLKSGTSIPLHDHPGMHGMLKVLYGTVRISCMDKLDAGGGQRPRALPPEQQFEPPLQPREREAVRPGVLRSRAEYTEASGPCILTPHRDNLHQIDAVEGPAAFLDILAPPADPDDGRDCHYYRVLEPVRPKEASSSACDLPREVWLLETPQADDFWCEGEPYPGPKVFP
In outline:
as §1

B1: IL32_(2-15), synthetic peptide corresponding to the methionine excised N-terminus of IL32, residues 2-15 (peptide, UniProt P24001 2-15, looked up)
peptide: CFPKVLSDDMKKLK
notes: Interleukin 32 (IL32), residues 2-15, N-terminal Cys; also called IL32 peptide; source: synthetic peptide
Turning to B1, the Kd in experiment [1] stood at 1 µM; in experiment [2], 4.2 µM; in experiment [3] it was 37 µM; in experiment [4], 1.3 µM; in experiment [5] it was 29 µM.

B2: RGS5_(2-15), synthetic peptide corresponding to the methionine excised N-terminus of RGS5, residues 2 to 15 (peptide, UniProt O15539 2-15, looked up)
peptide: CKGLAALPHSCLER
notes: Regulator of G-protein signalling 5 (RGS5), residues 2 to 15, N-terminal Cys; also called RGS5 peptide; source: synthetic peptide
Turning to B2, the Kd turned out to be 4.7 µM in experiment [1]; 1.7 µM in experiment [2]; 47 µM in experiment [3]; 1.1 µM in experiment [4]; 72 µM in experiment [5].
